According to patent publication US8993725B2, “Notch-based fusion proteins and uses thereof” (The Trustees of Columbia University in the City of New York, priority 2004, dated 2015):

Tests used:
MMP9 mRNA = experiment: RT-PCR analysis of MMP9 expression in Ad-VEGF-HUVEC; assay type: cell-based, Human
Procedure: FIGS. 24A-B show gelatin zymography analysis of MMP-9 and MMP-2 activity stimulated by VEGF in HUVEC. […] Transduced HUVEC were cultured on fibrin gel on the indicated day (i.e. D2, D4, D6, D8). Similar results were also obtained by using collagen gel, although induction of MMP-9 was stronger on fibrin gel than collagen gel (data not shown). […] HUVEC were transduced with Ad-N1ECDFc at the indicated doses and condition medium was collected from HUVEC cultured on collagen gel at day 4. FIGS. 24C-D show up-regulation of MMP-9 and MT1-MMP with Notch signaling. HUVEC were transduced with either Ad-LacZ or Ad-N1IC at 40 MOI. Numbers show PCR cycles. […] HUVEC were transduced with Ad-VEGF in the absence or presence of co-transduction of Ad-N1ECDFc at 40 MOI each. Ad-LacZ was co-transduced to make the same total amount of adenovirus at 80 MOI.
Requisition of MMPs for angiogenic sprouting has been established by synthetic MMP inhibitors (16). GM6001 is one broad inhibitor against MMPs including MMP2, MMP9 and MT1-MMP (18).

[1] = tested on: Notch1 signaling activated by Notch ligands (Jagged1, Delta-like 1, Delta-like 4); experiment: Co-culture assay of ligand-induced Notch signaling (CSL-luciferase reporter); assay type: cell-based; details: for Inhibition of ligand-induced Notch1 signaling (CSL reporter activity): fusion protein expression vector co-transfected into Notch1-expressing HeLa, co-culture with ligand-expressing 293 (Bosc) cells
Procedure: Notch and Notch responsive transcriptional reporters are expressed in a “Notch-responsive” cell, HeLa. Notch ligands, Jagged-1, Delta-like 1, or Delta-like 4 are expressed in a “ligand-presenting” cell, 293. Expression is mediated by transfection of individual cell populations, cells are co-cultured, and then assayed for Notch-dependent reporter activity.
To determine ligand-induced Notch signaling, co-culture assays were performed using HeLa and 293-derived Bosc cells. Transient transfections were performed by calcium phosphate precipitation. Hela cells plated 1-day prior in 10-cm plates at 1.5×10^6 were transfected with 333 ng of pBOS Notch1, 333 ng pGA981-6, and 83 ng pLNC lacZ with either 666 ng pCMV-Fc or pHyTC-N1ECDFc (333 ng for ×1, 666 ng for ×2). Bosc cells plated 1-day prior in 10-cm plates at 4×10^6 were transfected with either 680 ng pHyTc-Jagged1, pHyTc-Dll1, pHyTc-Dll4, or pHyTc-x (empty vector). One day after transfection, the cells were co-cultured in triplicate (HeLa:Bosc, 1:2) on 12-well plates for 24 hours. Cells were harvested and luciferase activity was determined 2-days post-transfection using the Enhanced Luciferase assay kit (BD PharMingen), and β-galactosidase activity was determined using the Galacto-Light Plus kit (PE Biosystems). All assays were performed in a Berthold dual-injection luminometer.
An in vitro co-culture system (FIG. 3) with ligands expressed on one cell and Notch receptor activation scored in another cell was used to measure transcriptional activation of the Notch pathway. […] The N1ECD/Fc expression vector was co-transfected at different ratios with full-length Notch1 and the CSL-luciferase reporter in HeLa cells, followed by co-culture with ligand expressing 293 cells.

HUVEC = HUVEC proliferation (CCK-8 kit); assay type: cell-based, Human; details: complete medium, 4 days
Procedure: These Figures show proliferation of Ad-VEGF165-transduced HUVEC. HUVEC were transduced with Ad-VEGF165 at the indicated dosages. Ad-LacZ was also co-infected to make the same total amount of adenovirus at a MOI of 40 pfu/cell. HUVEC were suspended in SFM supplemented with 1% FBS and then plated at 1×10^4 cells/well in 24-well multi-well plates with 0.4 ml of medium. After 4 days, cell numbers were determined using the CCK-8 kit and the results are indicated as the ratio of cell numbers determined to the number of control cells, which were transduced with Ad-GFP at a MOI of 40 pfu/cell. […] Ad-VEGF-transduced HUVEC were treated with SU5416 at the indicated dosages.
These Figures show the effect of alteration of Notch signaling on cell proliferation. The cells were transduced with the indicated adenoviruses. Ad-GFP was also co-infected to make the same total amount of adenovirus at a MOI of 60 pfu/cell. After 4 days, cell numbers were determined using the CCK-8 kit and results are indicated as the ratio of cell numbers determined to the number of control cells, which were transduced with AD-GFP at MOI of 60 pfu/cell. […] Transduced HUVEC were suspended in complete medium and then plated at 1×10^4 cells/well in 24-well multiwell plates with 0.4 ml of indicated medium (□: Ad-N1IC; ▪: Ad-N1ECDFc). […]

[2] = tested on: VEGF-induced angiogenesis; experiment: Mouse Dorsa Air Sac (DAS) assay of in vivo angiogenesis; details: for VEGF-induced angiogenesis / neo-vascularization in vivo (summary statement): mouse
Source text: These Figures show the role of Notch signaling in VEGF-dependent in vivo angiogenesis. […] Representative photographs are shown. FIG. 25A show subcutaneous induced angiogenesis with 293/VEGF transfectant versus 293/VEGF also expressing Notch decoy (Notch-based fusion protein) N1ECDFc. […] MDA-MB-231 breast cancer cells produce VEGF (data not shown).

[3] = listed as Notch-based fusion protein

B1: N1ECDFc: Notch-based fusion protein or decoy: extracellular domain of Notch1 containing the EGF-repeats fused to the Fc portion of an antibody (protein)
chain: ARGLRCSQPSGTCLNGGRCEVANGTEACVCSGAFVGQRCQDPSPCLSTPCKNAGTCYVVDHGGIVDYACSCPLGFSGPLCLTPLANACLANPCRNGGTCDLLTLTEYKCRCPPGWSGKSCQQADPCASNPCANGGQCLPFESSYICGCPPGFHGPTCRQDVNECSQNPGLCRHGGTCHNEIGSYRCACRATHTGPHCELPYVPCSPSPCQNGGTCRPTGDTTHECACLPGFAGQNCEENVDDCPGNNCKNGGACVDGVNTYNCRCPPEWTGQYCTEDVDECQLMPNACQNAGTCHNSHGGYNCVCVNGWTGEDCSDNIDDCASAACFQGATCHDRVASFYCECPHGRTGLLCHLNDACISNPCNEGSNCDTNPVNGKAICTCPRGYTGPACSQDVDECALGANPCEHAGKCLNTLGSFECQCLQGYTGPRCEIDVNECISNPCQNDATCLDQIGEFQCICMPGYEGVYCEINTDECASSPCLHNGRCVDKINEFLCQCPKGFSGHLCQYDVDECASTPCKNGAKCLDGPNTYTCVCTEGYTGTHCEVDIDECDPDPCHIGLCKDGVATFTCLCQPGYTGHHCETNINECHSQPCRHGGTCQDRDNYYLCLCLKGTTGPNCEINLDDCASNPCDSGTCLDKIDGYECACEPGYTGSMCNVNIDECAGSPCHNGGTCEDGIAGFTCRCPEGYHDPTCLSEVNECNSNPCIHGACRDGLNGYKCDCAPGWSGTNCDINNNECESNPCVNGGTCKDMTSGYVCTCREGFSGPNCQTNINECASNPCLNQGTCIDDVAGYKCNCPLPYTGATCEVVLAPCATSPCKNSGVCKESEDYESFSCVCPTGWQGQTCEIDINECVKSPCRHGASCQNTNGSYRCLCQAGYTGRNCESDIDDCRPNPCHNGGSCTDGVNAAFCDCLPGFQGAFCEEDINECATNPCQNGANCTDCVDSYTCTCPTGFNGIHCENNTPDCTESSCFNGGTCVDGINSFTCLCPPGFTGSYCQYDVNECDSRPCLHGGTCQDSYGTYKCTCPQGYTGLNCQNLVRWCDSAPCKNGGKCWQTNTQYHCECRSGWTGFNCDVLSVSCEVAAQKRGIDVTLLCQHGGLCVDEEDKHYCHCQAGYTGSYCEDEVDECSPNPCQNGATCTDYLGGFSCKCVAGYHGSNCSEEINECLSQPCQNGGTCIDLTNTYKCSCPRGTQGVHCEINVDDCHPPLDPASRSPKCFNNGTCVDQVGGYTCTCPPGFVGERCEGDVNECLSNPCDPRGTQNCVQRVNDFHCECRAGHTGRRCESVINGCRGKPCRNGGVCAVASNTARGFICRCPARFEGATCENDARTCGSLRCLNGGTCISGPRSPTCLCLGSFTGPECQFPASSPCVGSNPCYNQGTCEPTSESPFYRCLCPAKFNGLLCHILDYSFTDLGPG
modifications: left off: a dimerising Fc or GST
notes: Notch-based fusion protein or decoy: extracellular domain of Notch1 containing the EGF-repeats fused to the Fc portion of an antibody
- Expression of MMP9, fusion protein adenovirus alone (MMP9 mRNA; Ad-LacZ infected HUVEC, data not shown): did not affect expression of either MMP9 or MT1-MMP
- VEGF-induced up-regulation of MMP9 mRNA (MMP9 mRNA; co-transduction with Ad-VEGF, 40 MOI each): this induction was inhibited
- Concentration-dependency of inhibition of Notch1 signaling ([1]; 2:1 versus 1:1 ratio of N1ECD/Fc to Notch1 vector): a 2:1 ratio of N1ECD/Fc to Notch1 was more effective in inhibiting signaling than a 1:1 ratio
- Block of signaling by individual Notch ligands ([1]; Jagged1, Delta-like 1 or Delta-like 4 expressing cells): could block signaling mediated by Jagged1, Delta-like 1 or Delta-like 4
- Inhibition of ligand-induced Notch1 signaling (CSL reporter activity) [1]: inhibition of Notch signaling
- Inhibition of ligand-induced Notch1 signaling (CSL reporter activity) ([1]; listed as N1ECD/Fc): activation of Notch1 signaling by Notch ligands was reduced
- Inhibition of ligand-induced Notch1 signaling (CSL reporter activity) ([1]; listed as Notch1ECD/Fc): functions to block ligand-dependent Notch signaling
- Inhibition of ligand-induced Notch1 signaling (CSL reporter activity) [1, 3]: these inductions were inhibited
- Proliferation of transduced HUVEC (HUVEC): did not clearly alter proliferation of HUVEC
- Vessel density, index of angiogenesis, MDA-MB-231 ([2]; Ad-N1ECDFc infected MDA-MB-231 cells): is inhibited
- Induction of VEGFR-1 expression in vivo ([2]; VEGF-induced skin neovascularization model): blocks
- Inhibition of MDA-MB-231-induced in vivo angiogenesis ([2]; adenovirus mediated expression, compared to adenovirus expressing LacZ): clearly inhibited
- Vessel density, index of angiogenesis, 293/VEGF ([2]; co-expression of 293/N1ECDFc): is inhibited
- Inhibition of 293/VEGF-induced in vivo angiogenesis ([2]; coexpression in 293/VEGF transfectant, compared to 293/VEGF alone): clearly inhibited
- VEGF-induced angiogenesis / neo-vascularization in vivo (summary statement) [2]: inhibition of VEGF-induced angiogenesis
- VEGF-induced angiogenesis / neo-vascularization in vivo (summary statement) [2, 3]: blocks VEGF-induced neo-vascularization
